Measurements published in patent US20250282885A1 (VST BIO, published 2025).

What was measured:
[1] = target: T1, human Sdc2 (human, UniProt P34741 19-144, limits assumed); assay: Octet tandem binning; saturating Ab m6 19838-20H19-AA (marked non-binding ligand)
T1 construct: Antigen of the Octet tandem binning, loaded on biosensors at 100 nM; also called huSdc2; hSdc2

[2] = target: T2, pig Sdc2 (pig, UniProt F1S0L5 19-145); assay: Octet BLI, heading box over the sensorgram; the box prints nm, the table gives 1.50E-08 M
T2 construct: also called pSdc2
Description: (§1) In order to characterize the binding affinity and in vivo/in vitro functional ability of the twelve clones generated by the previous studies and disclosed in Table 1, a series of assays were performed on each clone. These assays measured the affinity of each antibody clone for human, pig, and mouse Sdc2 using an Octet® binding assay system. Additionally, the functional ability of each clone to inhibit VEGFA-driven permeability (see Santiago, et al. (2021) J Am Heart Assoc. 10(18):e020521) was assessed in two therapeutic settings: a “prevention” study in which three concentrations of antibody (5 μg/ml, 10 μg/ml, 15 μg/ml, 20 μg/ml, and/or 40 μg/ml depending on the study) were pre-incubated for an hour before administration of 100 ng/ml of VEGFA, and a “treatment” study in which 3 hours of pre-treatment with 100 ng/ml VEGFA were followed by treatment with antibody at 20 μg/ml or 40 μg/ml. Results are shown for 8-G17 in FIG. 8 and FIG. 9, 20-H19-AB in FIG. 10 and FIG. 11 (FIG. 12 for monkey ECs), R3-P3-C11 in FIG. 13 and FIG. 14, R4M-P3-E06 in FIG. 15 and FIG. 16, R3-P3-E09 in FIG. 17 and FIG. 18, R3-P1-C02 in FIG. 19 and FIG. 20, R3-P3-A12 in FIG. 21 and FIG. 22, R4M-P3-A12 in FIG. 23 and FIG. 24, and R4M-P1-A10 in FIG. 25 and FIG. 26.

[3] = target: T1, human Sdc2; assay: Octet tandem binning; saturating Ab f3 19838-6N03-A
[4] = target: T1, human Sdc2; assay: Octet BLI, HIS1K sensor loaded with huSdc2, antibody as sample; Full R2 0.9668
Description: as §1

[5] = target: T1, human Sdc2; assay: Octet tandem binning; saturating Ab f8 19844-R4M-P2-C02
[6] = target: T1, human Sdc2; assay: Kd (human Sdc2), summary table of the mAbs
[7] = target: T1, human Sdc2; assay: Octet tandem binning; saturating Ab f9 19838-6-E17-A
[8] = target: human Sdc2 on Human Umbilical Vein Endothelial Cells (HUVEC) (human, UniProt P34741 19-201); assay: cell-based or functional assay
[9] = target: T1, human Sdc2; assay: Octet tandem binning; saturating Ab f4 19844-R3-P3-C11
Procedure, shortened: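 Human Sdc2 (100 nM) served as antigen on Octet biosensors, which were dipped in saturating antibody at 25 μg/ml for 240 s, then competing antibody at 5 μg/ml for 180 s. Competing-antibody signal was divided by its binding after a buffer-only saturation step.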

T1 sequence (P34741 19-144 limits assumed): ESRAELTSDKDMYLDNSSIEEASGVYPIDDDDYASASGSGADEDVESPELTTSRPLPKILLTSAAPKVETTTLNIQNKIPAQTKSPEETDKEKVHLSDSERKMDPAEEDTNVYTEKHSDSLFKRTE
Chain of human Sdc2 on Human Umbilical Vein Endothelial Cells (HUVEC) (P34741 19-201 limits assumed): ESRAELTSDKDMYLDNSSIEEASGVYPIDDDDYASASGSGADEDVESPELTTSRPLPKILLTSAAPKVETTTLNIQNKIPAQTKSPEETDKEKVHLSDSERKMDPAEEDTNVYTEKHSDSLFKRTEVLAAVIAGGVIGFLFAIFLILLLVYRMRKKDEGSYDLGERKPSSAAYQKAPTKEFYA

raw competing-Ab binding signal [1]: 0.165
Kd [2]: ~15 nM
raw competing-Ab binding signal [3]: 0.106
Kd [4]: 14.4 nM
koff [4]: 0.067 s⁻¹
kon [4]: 4.65e+06 M⁻¹ s⁻¹
raw competing-Ab binding signal [5]: 0.0077
Kd [6]: 14 nM
raw competing-Ab binding signal [7]: 0.115
% Inhibition of VEGFA-induced permeability at 24hrs (20ug/ml) [8]: 60%
raw competing-Ab binding signal [9]: -0.0875
B1: R4M-P3-A12 (antibody, human IgG1, kappa, V domains shown)
VH: EVQLVESGGGVVQPGGSLRLSCAASGFTFSDHYMSWIRQAPGKGLEWVSYLSGSGTSIYYADSVKGRFTISRDNAKKSLYLQMNSLRAEDTAVYYCARVGPAAGNAFDIWGQGTMVTVSS
VL: QSVLTQPPSASGTPGQRVTISCSGSSSNIGSNYVYWYQQLPGTAPKLLIYRNNQRPSGVPDRFSGSKSGTSASLAITGLQAEDEADYYCQSYDSSLSGVVFGGGTKLTVLR
